Reference: publication PMC7040040 (Scientific Reports, 2020)

Legend:
Conditions in all cases: both partners purified
[1] = molecular target: T1, Aβ(3–40) monomer (Homo sapiens, UniProt P05067); assay: SPR; Biacore 3000; antibody captured on a CM5 chip via immobilised anti-mouse or anti-human antibody; monomeric Aβ peptides injected (240 µl, 30 µl/min), running buffer HBS-EP; 1:1 Langmuir binding model
T1 construct: amyloid beta peptide, residues 3-40, N-terminal glutamate not cyclised

[2] = molecular target: T2, Aβ(1–40) monomer (Homo sapiens, UniProt P05067); assay: as above
T2 construct: amyloid beta peptide, residues 1-40

[3] = molecular target: T3, oligomers (AADL) of 100% Aβ(1–42) (Homo sapiens, UniProt P05067); assay: SPR; Biacore 3000; Aβ oligomers or fibrils captured with pE3-Aβ-specific antibodies (pure pE3-Aβ aggregates) or an N-terminal non-pE3-Aβ-specific antibody (Aβ(1–42) aggregates and mixtures); PBD-C06 antibody injected; Single Cycle Kinetics model; bivalent binding
T3 construct: amyloid beta peptide, residues 1-42; also called Mixed Oligomers (AADL) 0: 100; oligomers consisting of 100% Aβ(1–42); source: 2500 µM Aβ(1–42) added to Ham's F-12 medium, 18 hours at 4 °C, supernatant after centrifugation

[4] = molecular target: T4, fibrils of 100% Aβ(1–42) (Homo sapiens, UniProt P05067); assay: as above
T4 construct: amyloid beta peptide, residues 1-42; also called Mixed Fibrils 0: 100; source: 350 µM Aβ(1–42), diluted to 50 µM, fibrillated 7 days at 37 °C, pH 8.7

Kd [1]: 0.796 µM
koff [1]: 0.0025 s⁻¹
kon [1]: 3200 M⁻¹ s⁻¹
Kd [2]: 6.31 µM
koff [2]: 0.0025 s⁻¹
kon [2]: 390 M⁻¹ s⁻¹
Kd [3]: 0.00202 µM
Kd [4]: 0.00181 µM
B1: murine PBD-C06 precursor antibody (antibody, V domains shown)
VH: EVQLQQSGPELVKPGASMKISCKASGYSFTGYTMNWVKQSHGKNLEWIGLINPYNGVTRYNQKFKGKATLIVDKSSSTAYMELLSLTSEDSAVYYCTREAKREWDETYWGQGTLVTVSA
VL: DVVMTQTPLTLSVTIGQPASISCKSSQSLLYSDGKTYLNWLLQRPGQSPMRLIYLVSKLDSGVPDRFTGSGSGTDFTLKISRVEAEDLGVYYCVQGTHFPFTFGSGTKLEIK
notes: murine hybridoma precursor VH; murine heavy chain constant region; murine hybridoma precursor VL; murine light chain constant region, not described; Whole antibody; also called murine precursor antibody
